Values of other authors in patent publication US20220280635A1, “PARTICLES FOR STIMULATING AN IMMUNE RESPONSE AGAINST VIRAL INFECTIONS” (FINNCURE OY, priority 2020, published 2022).

Molecular target: ACE2 (Homo sapiens, UniProt Q9BYF1)
Settings: simulation, ref [8]

ACE2, sequence (Q9BYF1 18-805): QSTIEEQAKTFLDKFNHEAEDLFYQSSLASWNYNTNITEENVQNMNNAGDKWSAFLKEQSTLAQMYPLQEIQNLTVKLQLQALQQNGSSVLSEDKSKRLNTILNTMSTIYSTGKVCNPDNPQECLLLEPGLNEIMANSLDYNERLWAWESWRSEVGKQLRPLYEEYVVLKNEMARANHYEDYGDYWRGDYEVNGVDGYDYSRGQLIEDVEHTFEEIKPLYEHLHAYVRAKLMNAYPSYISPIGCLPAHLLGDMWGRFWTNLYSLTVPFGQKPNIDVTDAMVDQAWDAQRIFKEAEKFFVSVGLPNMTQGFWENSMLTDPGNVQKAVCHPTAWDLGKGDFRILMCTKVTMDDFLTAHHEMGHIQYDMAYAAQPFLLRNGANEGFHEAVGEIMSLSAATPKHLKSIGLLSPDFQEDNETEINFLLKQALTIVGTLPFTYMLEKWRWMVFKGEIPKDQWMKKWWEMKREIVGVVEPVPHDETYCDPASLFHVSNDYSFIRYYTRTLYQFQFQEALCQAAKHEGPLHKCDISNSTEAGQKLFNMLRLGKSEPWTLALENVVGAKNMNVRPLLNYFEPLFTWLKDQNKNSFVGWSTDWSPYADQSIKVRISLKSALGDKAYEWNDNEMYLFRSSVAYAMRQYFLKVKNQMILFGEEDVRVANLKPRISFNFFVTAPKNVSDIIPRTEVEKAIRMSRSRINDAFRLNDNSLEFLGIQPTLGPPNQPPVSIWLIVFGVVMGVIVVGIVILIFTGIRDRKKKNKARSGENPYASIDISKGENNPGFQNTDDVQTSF

| Substance | binding affinity towards the ACE2 receptor compared with YKYRYL |
| --- | --- |
| YKYNYI: alternative synthetic hexapeptide variant (Potential alternative synthetic hexapeptide variant) | even stronger binding affinity |
| YKYNYL: alternative synthetic hexapeptide variant (Potential alternative synthetic hexapeptide variant) | even stronger binding affinity |
